This is an account of results in article PMC10201449, “Structures, activity and mechanism of the Type IIS restriction endonuclease PaqCI”.

The target of data set [1] is PaqCI, Type IIS restriction endonuclease of Paucibacter aquatile (Paucibacter aquatile). The data set can be described thus: cryo-EM structure; PaqCI with 50 bp DNA duplex (1:1.2 molar ratio) in 10 mM calcium chloride, SEC peak in 30 mM BisTris pH 6.5, 100 mM sodium chloride; 3.15 Å map, no symmetry imposed.
Data set [2] shares this target. In words: SEC; DNA-free PaqCI on Superdex 200 10/300 GL; 20 mM HEPES pH 7.5, 150 mM sodium chloride, 5 mM magnesium chloride, 1 mM DTT. (In general: SEC sorts molecules by how far they enter the pores of the column.)
Data set [3] has the same target. In words: crystal structure; DNA-free apo-enzyme; 20 to 25% PEG 3350, 0.2 M magnesium chloride, 0.1 M Bis-Tris pH 5.5; 2.5 Å; two subunits in the asymmetric unit, tetramer by a crystallographic two-fold axis.
For data set [4] the target is unchanged. In words: cryo-EM structure; DNA-free PaqCI, 0.1-0.4 mg/ml; 3.0 Å global resolution map, no symmetry imposed; crystallographic model docked.
Data set [5] has as its target T1, PaqCI Type IIS restriction endonuclease (Paucibacter aquatile, UniProt A0A2N8KYF9 1-510).
T1 sequence: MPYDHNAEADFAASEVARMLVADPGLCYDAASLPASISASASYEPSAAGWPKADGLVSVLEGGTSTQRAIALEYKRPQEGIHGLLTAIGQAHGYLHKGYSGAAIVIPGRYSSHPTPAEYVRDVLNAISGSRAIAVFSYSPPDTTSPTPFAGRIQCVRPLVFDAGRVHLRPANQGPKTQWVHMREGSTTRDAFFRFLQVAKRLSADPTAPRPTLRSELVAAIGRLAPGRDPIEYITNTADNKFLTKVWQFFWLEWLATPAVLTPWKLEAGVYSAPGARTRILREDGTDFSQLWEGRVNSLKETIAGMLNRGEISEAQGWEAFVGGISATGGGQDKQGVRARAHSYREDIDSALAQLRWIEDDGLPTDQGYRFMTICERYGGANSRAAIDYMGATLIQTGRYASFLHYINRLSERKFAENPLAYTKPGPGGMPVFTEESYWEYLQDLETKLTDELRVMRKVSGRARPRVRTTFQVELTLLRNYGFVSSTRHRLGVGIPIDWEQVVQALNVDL
The data set can be described thus: SEC co-elution; 10 mM Ca2+; 1:1.2 protein monomer:DNA; SEC/cryo-EM: 30 mM BisTris pH 6.5, 100 mM NaCl; complex formed with 10 mM CaCl2; temperature not stated. To be noted: protein: recombinant; tags: none (untagged); chain copies: 4; 50 complementary bp; four duplexes per tetramer.

A word on the stoichiometry N: it is the number of molecules, sites or subunits per partner or assembly.

In the case of “PaqCI, Type IIS restriction endonuclease of Paucibacter aquatile (enzyme)”, the stoichiometry N in data set [1], in data set [2], in data set [3] and in data set [4] was 4 each time.

B1: 50 bp PaqCI target duplex (dsDNA)
DNA 1: CCAGTCGGGATCAGCTCTCTTTCTTCCCACCTGCGCCACGCGAGGTACTC
DNA 2: GAGTACCTCGCGTGGCGCAGGTGGGAAGAAAGAGAGCTGATCCCGACTGG
As for B1, the binding result in data set [5] is on record as “binds”.
